# How the values were obtained:
# [1] = substrate: O=[N+]([O-])NC1=NCCN1Cc1ccc(Cl)nc1; experiment: substrate depletion, Sf9 microsomes; format: biochemical, Laodelphax striatellus; settings: 0-50 µM substrate; CPR co-expressed
# [2] = substrate: COc1ccc([N+](=O)[O-])cc1; experiment: cells, lysate or membranes; format: biochemical, Laodelphax striatellus; settings: NADPH, 30 °C, 1 pmol P450, 0-100 µM substrate, CPR co-expressed
protein,measurement,setting,value
"CYP353D1v2 (Laodelphax striatellus) (protein, with NADPH--cytochrome P450 reductase) MVKINGKWLTKYFSTAKVKPYDEIPTLPKWPFLGHAYLFFPNGKYKLERLGDAILDLRRTLGNIFKLNLNGDDLVVSLNPDDARSMYTAEGKLPYRPSFPALANYRKNTFGSIGVVPGNGEEWLHYRKAVLPLLKSNIVVAYAEDHKLIASRFVDYIGRNRGRSNELNDVFNHLLKFAIEATSITCPGVLFNCLDESLDKSDVSNVVTKASVDFMEGMYRTLVEPPFWKMWKTKSYRKLEQSHTAIHRLIADGIEKTKEDLKNNPNKHPFMASLFENSTLSENEILVLAMEVFLGGLDATPTTLAMTLHYLAQNPEAQSKAFNEISSQKQLKYVEACLKETLRLAPSAGASSRYLAEEAVLSGYLVPANTLVAVFSPITSRDEKYFHSPLEFIPERWFRENKAMRHPFASIPFGFGARVCPGRHFVNQEMVIFLTEILRNFKLNSNNGQVGMIHRMNRIPDQEIAIFFNDR",Km,[1],6.41 ± 1.27 µM
same,kcat,[1],0.001 ± 1.3e-05 s⁻¹
same,Km,[2],6.21 ± 0.65 µM

# — PMC5751167, “Buprofezin Is Metabolized by CYP353D1v2, a Cytochrome P450 Associated with Imidacloprid Resistance in Laodelphax striatellus” (International Journal of Molecular Sciences, 2017)
